Drawing on patent US20170343530A1, this text covers three discrete steps of channel change (conductance assay) for one substance.

The assay concerns the target mutant connector conjugated with a Strep-tag to its C-terminal. The assay can be described thus: cell-based or functional assay.

Substance “streptavidin (coated on nanogold) (from UniProt P22629 37-163)” returned a three discrete steps of channel change (conductance assay) of 32%.
